Target: PD-L1 (UniProt Q9EP73)
Chain of UniProt Q9EP73 (Q9EP73 19-290): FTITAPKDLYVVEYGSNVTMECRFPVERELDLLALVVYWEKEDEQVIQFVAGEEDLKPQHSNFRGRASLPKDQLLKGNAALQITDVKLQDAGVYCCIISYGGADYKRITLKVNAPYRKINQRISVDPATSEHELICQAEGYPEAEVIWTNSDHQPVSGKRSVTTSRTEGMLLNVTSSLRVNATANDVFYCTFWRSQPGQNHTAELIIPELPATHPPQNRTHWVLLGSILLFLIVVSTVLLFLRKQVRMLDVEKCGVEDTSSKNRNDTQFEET

## programmed cell death-1 (PD1), mouse, overexpressed in 293 T cells (from UniProt Q02242 25-288) (receptor)
  uptake by K7M2 cells of BI@PCM NPs (PD1-high membrane) compared to B@CM NPs (PD1-low membrane), flow cytometry, 4 h: 2.1 fold

— PMC12448032
